Source: PMC4089490, “Structures of the NLRP14 pyrin domain reveal a conformational switch mechanism regulating its molecular interactions” (Acta Crystallographica Section D: Biological Crystallography, 2014)
Residue numbers refer to the chain shown, from its start. In names and notes the source's numbering stands.

B1: NLRP14 PYD (wild-type NLRP14 pyrin domain, residues Met1-Gln100) (domain or fragment, human, UniProt Q86W24 1-100, looked up)
chain: MADSSSSSFFPDFGLLLYLEELNKEELNTFKLFLKETMEPEHGLTPWNEVKKARREDLANLMKKYYPGEKAWSVSLKIFGKMNLKDLCERAKEEINWSAQ
notes: NLRP14 pyrin domain, human, residues Met1-Gln100, amplified from human NLRP14 cDNA GenBank NM_176822.3; The crystal structure (PDB 4n1j) was solved from selenomethionine-labelled protein expressed in SeMet minimal medium and purified identically; SEC used the native protein; also called wild-type NLRP14 PYD; wild-type PYD; source: E. coli BL21 Star (DE3), purified (Ni-NTA, eluted by thrombin …)
B2: NLRP14 PYD D86V (protein)
chain: B1 chain with D86V

How the values were obtained:
[1] = molecular target: the molecule itself; experiment: SEC; analytical Superdex 75 10/300, 20 mM Tris pH 8.0, 150 mM NaCl, 5 mM TCEP; 700 µl at 1 mg/ml injected; monomer:dimer ratio from peak areas
[2] = molecular target: Q86W24; experiment: as above

Protein	stoichiometry N [1]	dimer fraction (SEC peak area) [2]
B1	2	dimeric (17%)
B2		12.13 ml, 24%
